# Measurements published in US20190127480A1 (Regeneron, published 2019).
# Substitutions are numbered along the chain they refer to. Numbers in names are those of the source.
# T1: soluble heterodimeric hCD3ε/δ.mFc protein (human)
# T1 construct: also called soluble human CD3; soluble heterodimeric CD3 protein
# T1 chain 1: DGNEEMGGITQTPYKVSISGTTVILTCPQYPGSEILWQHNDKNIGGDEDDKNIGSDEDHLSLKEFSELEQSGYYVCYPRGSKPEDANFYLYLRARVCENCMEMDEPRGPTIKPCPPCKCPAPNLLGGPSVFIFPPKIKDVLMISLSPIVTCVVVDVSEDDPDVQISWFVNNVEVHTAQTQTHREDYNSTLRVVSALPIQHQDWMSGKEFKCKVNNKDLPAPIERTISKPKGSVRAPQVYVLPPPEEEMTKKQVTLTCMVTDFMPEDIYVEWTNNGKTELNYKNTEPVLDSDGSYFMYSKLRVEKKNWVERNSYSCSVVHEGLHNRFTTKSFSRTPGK
# T1 chain 2: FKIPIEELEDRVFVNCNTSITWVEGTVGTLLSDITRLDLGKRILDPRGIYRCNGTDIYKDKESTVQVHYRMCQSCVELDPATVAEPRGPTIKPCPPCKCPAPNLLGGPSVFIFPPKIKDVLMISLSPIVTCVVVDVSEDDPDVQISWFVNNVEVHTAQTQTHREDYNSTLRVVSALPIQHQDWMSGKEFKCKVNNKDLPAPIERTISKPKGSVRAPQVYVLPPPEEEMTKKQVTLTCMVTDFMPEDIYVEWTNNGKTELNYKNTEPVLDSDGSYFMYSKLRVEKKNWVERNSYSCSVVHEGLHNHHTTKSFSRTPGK
# B1: BSPSMA/CD3-004 (bispecific antibody, IgG4, V domains shown)
# VH 1: QVQLVESGGGVVQPGRSLRLSCAASGFTFSSYGMHWVRQAPGKGLEWVAVISYAGNNKYYADSVKGRFTVSRDNSKKTLYLQMNSLRSEDTAVYYCAKDSYYDFLTDPDVLDIWGQGTMVTVSS
# VH 2: EVQLVESGGGLVQPGRSLRLSCAASGFTFDDYSMHWVRQAPGKGLEWVSGISWNSGSIGYADSVKGRFTISRDNAKNSLYLQMNSLRAEDTALYYCAKDGSGYGKFYYYGMDVWGQGTTVTVSS
# VL: DIQMTQSPSSLSASVGDSVTITCRASQSINNYLNWYQQKPGKAPKLLIYTASSLLSGVPSRFSGSGSGTDFTLTISGLHPEDFATYFCQQSFSTPPITFGQGTRLDIK
# notes: modified (chimeric) IgG4 Fc domain; also called PSMA-VH-11810 x CD3-VH-G5
# B2: BSPSMA/CD3-400 (bispecific antibody, IgG4, V domains shown)
# VH 1: B1 VH 1
# VH 2: B1 VH 2 with S33A
# VL: B1 VL
# notes: modified (chimeric) IgG4 Fc domain; also called PSMA-VH-11810 x CD3-VH-G4
# B3: BSPSMA/CD3-1300 (bispecific antibody, IgG4, V domains shown)
# VH 1: B1 VH 1
# VH 2: B1 VH 2 with D99Y, M111L
# VL: B1 VL
# notes: modified (chimeric) IgG4 Fc domain; also called PSMA-VH-11810 x CD3-VH-G13
# B4: BSPSMA/CD3-1800 (bispecific antibody, IgG4, V domains shown)
# VH 1: B1 VH 1
# VH 2: B1 VH 2 with M111L
# VL: B1 VL
# notes: modified (chimeric) IgG4 Fc domain; also called PSMA-VH-11810 x CD3-VH-G18
# B5: BSPSMA/CD3-300 (bispecific antibody, IgG4, V domains shown)
# VH 1: B1 VH 1
# VH 2: B1 VH 2 with K105Y
# VL: B1 VL
# notes: modified (chimeric) IgG4 Fc domain; also called PSMA-VH-11810 x CD3-VH-G3
# B6: BSPSMA/CD3-200 (bispecific antibody, IgG4, V domains shown)
# VH 1: B1 VH 1
# VH 2: B1 VH 2 with S33A, K105Y
# VL: B1 VL
# notes: modified (chimeric) IgG4 Fc domain; also called PSMA-VH-11810 x CD3-VH-G2
# B7: BSPSMA/CD3-1700 (bispecific antibody, IgG4, V domains shown)
# VH 1: B1 VH 1
# VH 2: B1 VH 2 with I58K, D99Y
# VL: B1 VL
# notes: modified (chimeric) IgG4 Fc domain; also called PSMA-VH-11810 x CD3-VH-G17
# B8: BSPSMA/CD3-1100 (bispecific antibody, IgG4, V domains shown)
# VH 1: B1 VH 1
# VH 2: B1 VH 2 with I58K, D99Y, Y108H
# VL: B1 VL
# notes: modified (chimeric) IgG4 Fc domain; also called PSMA-VH-11810 x CD3-VH-G11
# B9: BSPSMA/CD3-800 (bispecific antibody, IgG4, V domains shown)
# VH 1: B1 VH 1
# VH 2: B1 VH 2 with D99Y, Y108H, M111L
# VL: B1 VL
# notes: modified (chimeric) IgG4 Fc domain; also called PSMA-VH-11810 x CD3-VH-G8
# B10: H2M3547N (antibody, mouse IgG2, V domains shown)
# VH: EAQLVESGGGLVQPGRSLRLSCTTSGFTFDDYTMHWVRQAPGKGLEWISDISWNGGTKGYADSVKGRFTISRDNAKNSLYLQMDSLRGEDTALYYCVKDKSGYGHFYFGLDVWGQGTTVTVSS
# VL: DIQMTQSPSSLTASVGDRVTFTCRASQSISRHLSWYQQKPGKAPKLLIYAASSLESGVPSRFSGSGSGTDFTLTISSLHPEDFATYYCQQSYSNPPITFGQGTRLEIK
# notes: H2M: human variable regions, mouse IgG2 Fc
# B11: H2M3563N (antibody, mouse IgG2, V domains shown)
# VH: B1 VH 2 with Q3H, S33T, G50D, I70V, A88G, G100M, K105H, F106Y, Y107G, Y108K
# VL: DIQMTQSPSSLSASVGDRVTITCRASQSIRSYLNWYQQKPGKVPKLLIYAASSLQSGVPSRFSGSGSGTDFTLTINSLQPDDFATYYCQQTYSNPPITFGQGTRLEIK
# notes: as for B10
# B12: H1M11900N (antibody, mouse IgG1, V domains shown)
# VH: EVQLVESGGALVQTGGSLRLSCVASGFTFSNYWMSWVRQSPGKGLQWVASIKKDGSDEDYVDSVKGRFTISRDNAENSLYLQMTSLRIEDTAVYYCARFISAVGVDWGQGALVTVSS
# VL: B1 VL
# notes: human variable / mouse constant region (H1M: mouse IgG1 Fc)
# Biological target: T2, human CD3 on CD3-expressing cells (Jurkat, human T cells) (human, UniProt P07766 23-207; P04234 22-171)
# T2 construct: On cells CD3 stands within the T cell receptor complex (also gamma and zeta chains); also called human CD3 expressing Jurkat cells
# Assay: FACS on Jurkat cells
# Method: (§1) Briefly, 2×10⁵ cells/well of human CD3-expressing Jurkat, cynomolgus T, or human PSMA-specific expressing cells were incubated with a serial dilution of bispecific antibodies for 30 min at 4° C. After incubation, cells were washed and a goat F(ab′)₂ anti-human Fcγ PE labeled secondary (Jackson Immunolabs) was added to the cells for an additional 30 min. Next, cells were washed, re-suspended in cold PBS+1% BSA and analyzed via flow cytometry on a BD FACS Canto II.
# (§2) For FACS analysis, cells were gated by forward scatter height vs. forward scatter area for single events selection, followed by side and forward scatters. The EC₅₀ for cell binding titration was determined using Prism software. Values were calculated using 4-parameter non-linear regression analysis.
EC50,binding result,Binder
~1000 nM,,B1
,no binding,B2
102 nM,,B3
126 nM,,B4
,no binding,B5
,no binding,B6
200 nM,,B7
18.3 nM,,B8
19.3 nM,,B9

# Biological target: T3, human PSMA on PSMA-expressing cells (human, UniProt Q04609 1-750)
# T3 sequence (Q04609 whole entry): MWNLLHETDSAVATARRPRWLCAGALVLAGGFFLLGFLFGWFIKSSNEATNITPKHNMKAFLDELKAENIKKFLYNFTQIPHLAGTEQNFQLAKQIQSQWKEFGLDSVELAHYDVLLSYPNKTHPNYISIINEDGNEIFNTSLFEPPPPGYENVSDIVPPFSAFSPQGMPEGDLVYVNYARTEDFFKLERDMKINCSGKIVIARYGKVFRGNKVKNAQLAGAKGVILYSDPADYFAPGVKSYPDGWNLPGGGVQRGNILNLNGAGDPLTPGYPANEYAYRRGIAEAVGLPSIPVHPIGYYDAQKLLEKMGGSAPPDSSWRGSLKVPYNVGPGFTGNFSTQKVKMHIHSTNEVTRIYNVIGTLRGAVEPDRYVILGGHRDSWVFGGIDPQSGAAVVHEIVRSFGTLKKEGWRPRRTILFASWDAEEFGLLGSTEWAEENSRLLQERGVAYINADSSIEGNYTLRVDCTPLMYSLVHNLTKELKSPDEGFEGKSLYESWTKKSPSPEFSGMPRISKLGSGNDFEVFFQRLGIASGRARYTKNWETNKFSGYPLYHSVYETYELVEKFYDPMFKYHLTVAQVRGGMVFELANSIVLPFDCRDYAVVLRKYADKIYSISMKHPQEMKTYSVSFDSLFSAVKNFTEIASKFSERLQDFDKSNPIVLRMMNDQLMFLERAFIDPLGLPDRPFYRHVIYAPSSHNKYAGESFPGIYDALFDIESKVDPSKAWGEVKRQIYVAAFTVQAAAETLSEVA
# Assay: cell-based or functional assay
22RV1 Cell depletion EC50,C4-2 Cell depletion EC50,TrampC2.PSMA Cell depletion EC50,Binder
0.00631 nM,0.0215 nM,0.0115 nM,B1
,0.00874 nM,,B3
0.00207 nM,0.00737 nM,,B7
,,0.00386 nM,B8
,,0.00927 nM,B9

# Biological target: T2, human CD3 on CD3-expressing cells …
# Assay: cell-based or functional assay
row,T cell activation EC50,Binder
1,0.0134 nM,B1
2,0.00231 nM,B3
3,0.0185 nM,B5
4,0.00389 nM,B7
5,0.00111 nM,B8
6,0.00176 nM,B9

# Biological target: human CD3 expressed on cells (Jurkat cells; human T-cells of PBMC) (human, UniProt P09693 23-182; P20963 22-164)
# Sequence (chain, as listed by the source, chain 1 of 4): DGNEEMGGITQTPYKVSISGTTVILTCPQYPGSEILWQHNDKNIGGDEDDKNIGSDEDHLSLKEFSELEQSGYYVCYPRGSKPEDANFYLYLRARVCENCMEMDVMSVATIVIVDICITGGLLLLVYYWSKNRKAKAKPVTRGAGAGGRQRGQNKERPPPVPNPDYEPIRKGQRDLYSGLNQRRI
# Sequence (chain, as listed by the source, chain 2 of 4): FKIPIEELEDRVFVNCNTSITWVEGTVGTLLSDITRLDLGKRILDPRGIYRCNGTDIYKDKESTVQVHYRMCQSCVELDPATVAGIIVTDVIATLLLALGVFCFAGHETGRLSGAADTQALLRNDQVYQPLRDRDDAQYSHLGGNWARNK
# Sequence (P09693 23-182, chain 3 of 4): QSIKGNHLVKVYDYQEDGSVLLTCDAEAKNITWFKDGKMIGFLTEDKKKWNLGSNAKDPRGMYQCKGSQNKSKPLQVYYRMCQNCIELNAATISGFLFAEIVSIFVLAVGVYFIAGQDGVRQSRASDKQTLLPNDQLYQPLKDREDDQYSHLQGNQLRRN
# Sequence (P20963 22-164, chain 4 of 4): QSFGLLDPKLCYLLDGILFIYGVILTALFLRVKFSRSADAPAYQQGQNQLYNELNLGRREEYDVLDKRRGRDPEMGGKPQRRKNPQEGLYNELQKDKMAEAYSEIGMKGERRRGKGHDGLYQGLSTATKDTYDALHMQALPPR
# Assay: cell-based or functional assay
row,Binder,U937 Cytotoxicity Human T-cells
1,B10,31.7 pM
2,B11,40.5 pM

# Biological target: T4, cynomolgus CD3 on cynomolgus T cells (cynomolgus, UniProt Q95LI5 22-198; Q95LI8 22-171)
# T4 construct: whole, on cells; also called Cyno T-cells; monkey T-cells
# T4 sequence (Q95LI5 22-198, form in doubt, chain 1 of 2): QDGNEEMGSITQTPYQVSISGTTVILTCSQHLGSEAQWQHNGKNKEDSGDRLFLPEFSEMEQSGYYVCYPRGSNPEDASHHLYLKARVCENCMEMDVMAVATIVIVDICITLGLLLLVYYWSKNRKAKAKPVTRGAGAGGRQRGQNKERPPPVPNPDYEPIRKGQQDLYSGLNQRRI
# T4 sequence (Q95LI8 22-171, form in doubt, chain 2 of 2): as the sequence (chain, as listed by the source, chain 2 of 4) above, with I5V, N15K, I20V, S32T, D33N, I34N, T64A, S74N, V83L, H141R counted along it
# Assay: FACS on cynomolgus T cells
# Method: as §1, §2
row,EC50,Binder
1,2170 nM,B3
2,3350 nM,B7
3,890 nM,B8
4,19.6 nM,B9

# Biological target: T3, human PSMA on PSMA-expressing cells
# Assay: FACS on B16F10.9/PSMA cells
# Method: as §1, §2
row,EC50,Binder
1,1.31 nM,B1
2,1.72 nM,B2
3,1.25 nM,B3
4,2.16 nM,B4
5,1.9 nM,B5
6,1.88 nM,B6
7,1.34 nM,B7
8,1.03 nM,B8
9,1.31 nM,B9

# Biological target: T1, soluble heterodimeric hCD3ε/δ.mFc …
# Assay: SPR MASS-1, 37 C, antigen-capture format
# Method: (§3) Measurements were conducted on a Sierra Sensors MASS-1 instrument.
# (§4) In the antigen-capture format, the MASS-1 high-density amine sensor surface was derivatized with a goat anti-mouse IgG2a polyclonal antibody (Southern Biotech). Soluble heterodimeric CD3 protein was captured and the respective antibodies were injected over the captured antigen.
# (§5) Kinetic association (kₐ) and dissociation (kd) rate constants were determined by processing and fitting the data to a 1:1 binding model using MASS-1 AnalyserR2 curve fitting software. Binding dissociation equilibrium constants (KD) and dissociative half-lives (t_{1/2}) were calculated from the kinetic rate constants as: KD (M)=kd/kₐ; and t_{1/2} (min)=(ln 2/(60*kd).
row,binding result,Binder
1,no binding,B1
2,no binding,B2
3,no binding,B4
4,no binding,B5
5,no binding,B6

# Biological target: T5, cynomolgus monkey CD3 expressed on monkey T-cells (PBMCs) (cynomolgus monkey, UniProt Q95LI5 22-198; Q95LI8 22-171)
# T5 construct: whole, on cells; Native CD3 on monkey T cells; gamma and zeta chains are also part of CD3 on cells; also called monkey PBMCs; mfPBMC
# T5 sequence (Q95LI5 22-198, chain 1 of 2): as the sequence (Q95LI5 22-198, form in doubt, chain 1 of 2) above
# T5 sequence (Q95LI8 22-171, chain 2 of 2): as the sequence (chain, as listed by the source, chain 2 of 4) above, with I5V, N15K, I20V, S32T, D33N, I34N, T64A, S74N, V83L, H141R counted along it
# Assay: FACS titration on monkey PBMCs, gated on CD2+CD4+ T cells
# Method: FACS data was acquired using the following protocol: Cells at 2×10⁵ per well were incubated with serially diluted antibodies for 30 min on ice. Post incubation, cells were washed and secondary antibodies were added and incubated for an additional 30 minutes. After incubation, cells were washed, re-suspended in cold PBS containing 1% BSA and analyzed by flow cytometry. CD4+ monkey T cells were gated by side and forward scatters, and on the CD2+CD4+CD20− population. The EC₅₀s for cell binding titration were calculated using a 4-parameter non-linear regression analysis in GraphPad Prism.
row,EC50,Binder
1,0.112 nM,B10
2,0.165 nM,B11

# Biological target: T1, soluble heterodimeric hCD3ε/δ.mFc …
# Assay: SPR MASS-1, 37 C, antigen-capture (hCD3ε/δ.mFc captured), antibody injected
# Method: as §3, §4, §5
Kd,T½,koff,kon,Binder
122 nM,4.7 min,0.00248 s⁻¹,20300 M⁻¹ s⁻¹,B3
65.2 nM,3.8 min,0.00307 s⁻¹,47000 M⁻¹ s⁻¹,B7
11.1 nM,11.3 min,0.00102 s⁻¹,92100 M⁻¹ s⁻¹,B8
19.4 nM,10 min,0.00115 s⁻¹,59500 M⁻¹ s⁻¹,B9

# Biological target: T6, human PSMA expressed with an N-terminal hexahistidine tag (6h.hPSMA, R&D) (human, UniProt Q04609 44-750)
# T6 construct: Bought soluble protein; also called soluble human PSMA; human PSMA protein
# T6 sequence (Q04609 other isoform, or with tags, fused parts or gaps limits assumed): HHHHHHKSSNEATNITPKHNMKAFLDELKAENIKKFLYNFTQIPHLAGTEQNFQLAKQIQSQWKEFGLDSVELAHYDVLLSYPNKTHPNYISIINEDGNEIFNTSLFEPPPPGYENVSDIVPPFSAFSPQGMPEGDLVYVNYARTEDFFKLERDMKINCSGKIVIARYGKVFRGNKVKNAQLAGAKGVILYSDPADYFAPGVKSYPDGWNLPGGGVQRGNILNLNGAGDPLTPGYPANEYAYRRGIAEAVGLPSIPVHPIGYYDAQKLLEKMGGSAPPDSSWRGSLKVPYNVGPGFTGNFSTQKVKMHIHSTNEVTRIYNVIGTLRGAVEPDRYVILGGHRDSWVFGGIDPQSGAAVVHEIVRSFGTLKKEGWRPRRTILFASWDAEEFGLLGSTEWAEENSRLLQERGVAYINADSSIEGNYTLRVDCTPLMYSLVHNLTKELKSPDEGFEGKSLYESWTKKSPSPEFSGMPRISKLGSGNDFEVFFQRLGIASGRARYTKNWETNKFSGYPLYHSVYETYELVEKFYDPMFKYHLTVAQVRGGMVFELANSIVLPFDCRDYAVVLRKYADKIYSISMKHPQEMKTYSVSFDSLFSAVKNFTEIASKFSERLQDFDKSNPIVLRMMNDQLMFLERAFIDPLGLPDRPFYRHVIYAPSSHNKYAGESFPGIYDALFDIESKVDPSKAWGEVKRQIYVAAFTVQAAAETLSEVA
# Assay: SPR Biacore T-200, 37 C, antibody-capture (anti-mouse Fc), 6h.hPSMA as analyte
# Method: Briefly, a CM5 Biacore™ sensor surface was derivatized via amine coupling with a monoclonal mouse anti-human Fc antibody (GE, # BR-1008-39) or monoclonal goat anti-mouse Fc antibody (GE, # BR-1008-38) to capture purified anti-PSMA antibodies. Binding studies were performed in HBSP++ buffer composed of 0.01M HEPES, 0.15M NaCl, 2 mM Ca²⁺, 2 mM Mg²⁺, 0.05% v/v Surfactant P20, pH7.4. Varying concentrations of human PSMA expressed with an N-terminal hexahistidine tag (6h.hPSMA, R&D) prepared in HBSP++ running buffer (ranging from 50 to 0.78 nM, 4-fold dilutions) were injected over the anti-PSMA antibody captured surface at a flow rate of 30 μL/minute. Antibody-reagent association was monitored for 2 minutes while dissociation in HBSP++ running buffer was monitored for 8 minutes.
# as §5, with “by” for “by processing and”, “real-time sensorgrams” for “data”, “Scrubber 2.0c” for “MASS-1 AnalyserR2”, “(t½)” for “(t_{1/2})”
Kd,koff,kon,t1/2,Binder
25.8 nM,0.00406 s⁻¹,157000 M⁻¹ s⁻¹,2.8 min,B12
